Laboratory results as given in patent publication US20140087995A1 (published 2014).
Numbered stars: 1 amine (or outer) side, 2 acyl side, 3 side chain; on linkers, the order of the positions; unused ones are H or OH. Bridge positions count the residues as written; N and C are the ends. * marks the point of attachment. C20 diacid = O=C(O)CCCCCCCCCCCCCCCCCCC(=O)*; γGlu = O=C(O)[C@H](CCC(=O)[*:2])N[*:1]

T1: human calcitonin receptor (human, UniProt P30988 25-474)
T1 construct: whole, on cells; also called hCTR; hCT
T1 sequence (looked up): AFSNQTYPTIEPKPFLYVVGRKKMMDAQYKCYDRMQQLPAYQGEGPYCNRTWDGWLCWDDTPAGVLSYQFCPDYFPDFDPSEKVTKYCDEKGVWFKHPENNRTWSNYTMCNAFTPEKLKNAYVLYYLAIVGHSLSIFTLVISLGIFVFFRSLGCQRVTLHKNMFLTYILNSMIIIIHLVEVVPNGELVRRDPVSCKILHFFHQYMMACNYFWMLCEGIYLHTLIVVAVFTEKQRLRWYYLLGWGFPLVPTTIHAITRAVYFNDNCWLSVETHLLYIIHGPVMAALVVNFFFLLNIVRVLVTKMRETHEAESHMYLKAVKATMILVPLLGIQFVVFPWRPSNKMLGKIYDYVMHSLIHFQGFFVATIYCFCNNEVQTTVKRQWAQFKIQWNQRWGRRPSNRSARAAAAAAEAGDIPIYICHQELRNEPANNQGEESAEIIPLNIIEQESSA


What was measured:
[1] = biological target: T1, human calcitonin receptor; assay: ratio of IC50 at hCTR to IC50 at the human amylin receptor (reference)
Experimental: The resulting pellet was resuspended, homogenized and centrifuged (20.000 rpm, 15 min) in a buffer containing 20 mM Na-HEPES and 0.1 mM EDTA (pH 7.4, buffer 2). The resulting pellet was resuspended in buffer 2 and protein concentration was measured (BCA protein Assay, Pierce). The homogenate was kept cold during the whole procedure. The membranes were kept at −80° C. until use. The assay was performed in a 384 well Optiplate (PerkinElmer) in a total volume of 40 ul. Membranes were mixed with SPA beads. Final concentration of membranes 35 ng/μL final and SPA beads was 0.05 mg/well. Test-compounds were dissolved in DMSO and further diluted in assay buffer (50 mM Hepes, pH 7.4, 1 mM CaCl2, 5 mM MgCl₂, 0.1% OA and 0.02% Tween20). […] The final mixture was incubated with shaking at 400 rpm for 120 min at 25° C. prior to centrifugation (1500 rpm, 10 min). Samples were analyzed on TopCounter™ (Packard). The IC₅₀ was calculated using (one site binding competition analysis) GraphPad Prism5 as a measure of receptor affinity.
Membranes were prepared in the following way; the cells were rinsed with PBS and incubated with Versene for approximately 5 min before harvesting. The cells were flushed with PBS and the cell-suspension was centrifuged for 5 min at 1000 rpm. Cells were homogenized (Ultrathurrax) in a buffer containing 20 mM Na-HEPES and 10 mM EDTA (pH 7.4) and centrifuged at 20.000 rpm for 15 min. The resulting pellet was resuspended, homogenized and centrifuged (20.000 rpm, 15 min) in a buffer containing 20 mM Na-HEPES and 0.1 mM EDTA (pH 7.4, buffer 2). The resulting pellet was resuspended in buffer 2 and protein concentration was measured (BCA protein Assay, Pierce). The homogenate was kept cold during the whole procedure. The membranes were kept at −80° C. until use. Assay was performed in a 384 well Optiplate (PerkinElmer) in a total volume of 40 ul. Membranes were mixed with SPA beads.

[2] = biological target: T1, human calcitonin receptor; assay: SPA competition binding, membranes with human calcitonin receptor, displacement of 125I-calcitonin (Assay VII)
Experimental: Membranes were prepared in the following way; the cells were rinsed with PBS and incubated with Versene for approximately 5 min before harvesting. The cells were flushed with PBS and the cell-suspension was centrifuged for 5 min at 1000 rpm. Cells were homogenized (Ultrathurrax) in a buffer containing 20 mM Na-HEPES and 10 mM EDTA (pH 7.4) and centrifuged at 20.000 rpm for 15 min. The resulting pellet was resuspended, homogenized and centrifuged (20.000 rpm, 15 min) in a buffer containing 20 mM Na-HEPES and 0.1 mM EDTA (pH 7.4, buffer 2). The resulting pellet was resuspended in buffer 2 and protein concentration was measured (BCA protein Assay, Pierce). The homogenate was kept cold during the whole procedure. The membranes were kept at −80° C. until use. Assay was performed in a 384 well Optiplate (PerkinElmer) in a total volume of 40 ul. Membranes were mixed with SPA beads. Final concentration of membranes 35 ng/μL final and Final concentration of SPA beads was 0.05 mg/well. Test-compounds were dissolved in DMSO and further diluted in assay buffer (50 mM Hepes, pH 7.4, 1 mM CaCl2, 5 mM MgCl₂, 0.1% OA and 0.02% Tween20). […] The final mixture was incubated for 120 min with shaking at 400 rpm at 25° C. prior to centrifugation (1500 rpm, 10 min). Samples were analyzed on TopCounter™ (Packard). The […] was calculated using (one site binding competition analysis) GraphPad Prism5 as a measure of receptor affinity.

Binder | Ratio hCT/hAmylin binding [1] | IC50 [2]
{C20 diacid-γGlu}-KCNTATCATQRLAEFLRHSSPNFGAIPSSTNVGSHTY-NH2 (disulfide 2-7; SMILES CC[C@H](C)[C@H](NC(=O)[C@H](C)NC(=O)CNC(=O)[C@H](Cc1ccccc1)NC(=O)[C@H](CC(N)=O)NC(=O)[C@@H]1CCCN1C(=O)[C@H](CO)NC(=O)[C@H](CO)NC(=O)[C@H](Cc1c[nH]cn1)NC(=O)[C@H](CCCNC(=N)N)NC(=O)[C@H](CC(C)C)NC(=O)[C@H](Cc1ccccc1)NC(=O)[C@H](CCC(=O)O)NC(=O)[C@H](C)NC(=O)[C@H](CC(C)C)NC(=O)[C@H](CCCNC(=N)N)NC(=O)[C@H](CCC(N)=O)NC(=O)[C@@H](NC(=O)[C@H](C)NC(=O)[C@@H]1CSSC[C@H](NC(=O)[C@H](CCCCN)NC(=O)CC[C@H](NC(=O)CCCCCCCCCCCCCCCCCCC(=O)O)C(=O)O)C(=O)N[C@@H](CC(N)=O)C(=O)N[C@@H]([C@@H](C)O)C(=O)N[C@@H](C)C(=O)N[C@@H]([C@@H](C)O)C(=O)N1)[C@@H](C)O)C(=O)N1CCC[C@H]1C(=O)N[C@@H](CO)C(=O)N[C@@H](CO)C(=O)N[C@H](C(=O)N[C@@H](CC(N)=O)C(=O)N[C@H](C(=O)NCC(=O)N[C@@H](CO)C(=O)N[C@@H](Cc1c[nH]cn1)C(=O)N[C@H](C(=O)N[C@@H](Cc1ccc(O)cc1)C(N)=O)[C@@H](C)O)C(C)C)[C@@H](C)O, also called compound 18) | 9.2 | 5.09 nM
{C20 diacid-γGlu}-KCNTATCATQRLAEFLRHSSPNFGAIPSPTNVGSNTY-NH2 (disulfide 2-7; SMILES CC[C@H](C)[C@H](NC(=O)[C@H](C)NC(=O)CNC(=O)[C@H](Cc1ccccc1)NC(=O)[C@H](CC(N)=O)NC(=O)[C@@H]1CCCN1C(=O)[C@H](CO)NC(=O)[C@H](CO)NC(=O)[C@H](Cc1c[nH]cn1)NC(=O)[C@H](CCCNC(=N)N)NC(=O)[C@H](CC(C)C)NC(=O)[C@H](Cc1ccccc1)NC(=O)[C@H](CCC(=O)O)NC(=O)[C@H](C)NC(=O)[C@H](CC(C)C)NC(=O)[C@H](CCCNC(=N)N)NC(=O)[C@H](CCC(N)=O)NC(=O)[C@@H](NC(=O)[C@H](C)NC(=O)[C@@H]1CSSC[C@H](NC(=O)[C@H](CCCCN)NC(=O)CC[C@H](NC(=O)CCCCCCCCCCCCCCCCCCC(=O)O)C(=O)O)C(=O)N[C@@H](CC(N)=O)C(=O)N[C@@H]([C@@H](C)O)C(=O)N[C@@H](C)C(=O)N[C@@H]([C@@H](C)O)C(=O)N1)[C@@H](C)O)C(=O)N1CCC[C@H]1C(=O)N[C@@H](CO)C(=O)N1CCC[C@H]1C(=O)N[C@H](C(=O)N[C@@H](CC(N)=O)C(=O)N[C@H](C(=O)NCC(=O)N[C@@H](CO)C(=O)N[C@@H](CC(N)=O)C(=O)N[C@H](C(=O)N[C@@H](Cc1ccc(O)cc1)C(N)=O)[C@@H](C)O)C(C)C)[C@@H](C)O, also called compound 37) | 2.3 | 2.18 nM
{C20 diacid-γGlu}-KCNTATCATQRLAEFLRHSSPNFGAIPSSTPVGSNTY-NH2 (disulfide 2-7; SMILES CC[C@H](C)[C@H](NC(=O)[C@H](C)NC(=O)CNC(=O)[C@H](Cc1ccccc1)NC(=O)[C@H](CC(N)=O)NC(=O)[C@@H]1CCCN1C(=O)[C@H](CO)NC(=O)[C@H](CO)NC(=O)[C@H](Cc1c[nH]cn1)NC(=O)[C@H](CCCNC(=N)N)NC(=O)[C@H](CC(C)C)NC(=O)[C@H](Cc1ccccc1)NC(=O)[C@H](CCC(=O)O)NC(=O)[C@H](C)NC(=O)[C@H](CC(C)C)NC(=O)[C@H](CCCNC(=N)N)NC(=O)[C@H](CCC(N)=O)NC(=O)[C@@H](NC(=O)[C@H](C)NC(=O)[C@@H]1CSSC[C@H](NC(=O)[C@H](CCCCN)NC(=O)CC[C@H](NC(=O)CCCCCCCCCCCCCCCCCCC(=O)O)C(=O)O)C(=O)N[C@@H](CC(N)=O)C(=O)N[C@@H]([C@@H](C)O)C(=O)N[C@@H](C)C(=O)N[C@@H]([C@@H](C)O)C(=O)N1)[C@@H](C)O)C(=O)N1CCC[C@H]1C(=O)N[C@@H](CO)C(=O)N[C@@H](CO)C(=O)N[C@H](C(=O)N1CCC[C@H]1C(=O)N[C@H](C(=O)NCC(=O)N[C@@H](CO)C(=O)N[C@@H](CC(N)=O)C(=O)N[C@H](C(=O)N[C@@H](Cc1ccc(O)cc1)C(N)=O)[C@@H](C)O)C(C)C)[C@@H](C)O, also called compound 31) | 16 | 3.26 nM
{C20 diacid-γGlu}-KCNTATCATQRLAEFLRHSSPNFGAIPSSTNVGSNTP-NH2 (disulfide 2-7; SMILES CC[C@H](C)[C@H](NC(=O)[C@H](C)NC(=O)CNC(=O)[C@H](Cc1ccccc1)NC(=O)[C@H](CC(N)=O)NC(=O)[C@@H]1CCCN1C(=O)[C@H](CO)NC(=O)[C@H](CO)NC(=O)[C@H](Cc1c[nH]cn1)NC(=O)[C@H](CCCNC(=N)N)NC(=O)[C@H](CC(C)C)NC(=O)[C@H](Cc1ccccc1)NC(=O)[C@H](CCC(=O)O)NC(=O)[C@H](C)NC(=O)[C@H](CC(C)C)NC(=O)[C@H](CCCNC(=N)N)NC(=O)[C@H](CCC(N)=O)NC(=O)[C@@H](NC(=O)[C@H](C)NC(=O)[C@@H]1CSSC[C@H](NC(=O)[C@H](CCCCN)NC(=O)CC[C@H](NC(=O)CCCCCCCCCCCCCCCCCCC(=O)O)C(=O)O)C(=O)N[C@@H](CC(N)=O)C(=O)N[C@@H]([C@@H](C)O)C(=O)N[C@@H](C)C(=O)N[C@@H]([C@@H](C)O)C(=O)N1)[C@@H](C)O)C(=O)N1CCC[C@H]1C(=O)N[C@@H](CO)C(=O)N[C@@H](CO)C(=O)N[C@H](C(=O)N[C@@H](CC(N)=O)C(=O)N[C@H](C(=O)NCC(=O)N[C@@H](CO)C(=O)N[C@@H](CC(N)=O)C(=O)N[C@H](C(=O)N1CCC[C@H]1C(N)=O)[C@@H](C)O)C(C)C)[C@@H](C)O, also called compound 8) | 0.5 | 0.038 nM
{C20 diacid-γGlu}-KCNTATCATQRLAEFLRHSSPNFGAILPSTNVGSETY-NH2 (disulfide 2-7, also called compound 33) | 3.9 | 3.61 nM
